Measured values published in patent US12497460B2, “Anti-MSR1 antibodies and methods of use thereof” (REGENERON PHARMACEUTICALS, INC., priority 2018, dated 2025).
Changes are numbered by the printed parent chain. Names and notes keep the numbering of the source.

T1: His9-mMSR1 (mouse MSR1 extracellular domain) (Mus musculus, UniProt P30204)
T1 construct: mouse MSR1 extracellular domain expressed with a N-terminal nonahistidine tag; His9 (nonahistidine) (N); purchased R&D Systems 1797-MS
T1 sequence (P30204 79-458 limits assumed): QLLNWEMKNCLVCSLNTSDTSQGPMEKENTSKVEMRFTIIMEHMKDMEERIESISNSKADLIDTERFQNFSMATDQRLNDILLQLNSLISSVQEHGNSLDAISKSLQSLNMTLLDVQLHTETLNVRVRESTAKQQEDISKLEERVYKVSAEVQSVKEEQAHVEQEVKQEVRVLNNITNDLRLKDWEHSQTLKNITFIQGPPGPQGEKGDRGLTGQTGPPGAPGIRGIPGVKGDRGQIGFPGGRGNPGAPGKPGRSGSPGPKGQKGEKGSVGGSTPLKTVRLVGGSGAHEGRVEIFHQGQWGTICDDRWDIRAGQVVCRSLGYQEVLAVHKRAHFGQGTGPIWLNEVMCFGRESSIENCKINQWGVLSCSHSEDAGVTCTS

T2: MSR1-mediated Dil-OxLDL uptake in HEK293.Myc.hMSR1 cells (Homo sapiens, UniProt P21757)
T2 construct: expressed in transfected cells; host or cells: HEK293 (lentiviral transduction, hygromycin selection)
T2 sequence (P21757 1-451): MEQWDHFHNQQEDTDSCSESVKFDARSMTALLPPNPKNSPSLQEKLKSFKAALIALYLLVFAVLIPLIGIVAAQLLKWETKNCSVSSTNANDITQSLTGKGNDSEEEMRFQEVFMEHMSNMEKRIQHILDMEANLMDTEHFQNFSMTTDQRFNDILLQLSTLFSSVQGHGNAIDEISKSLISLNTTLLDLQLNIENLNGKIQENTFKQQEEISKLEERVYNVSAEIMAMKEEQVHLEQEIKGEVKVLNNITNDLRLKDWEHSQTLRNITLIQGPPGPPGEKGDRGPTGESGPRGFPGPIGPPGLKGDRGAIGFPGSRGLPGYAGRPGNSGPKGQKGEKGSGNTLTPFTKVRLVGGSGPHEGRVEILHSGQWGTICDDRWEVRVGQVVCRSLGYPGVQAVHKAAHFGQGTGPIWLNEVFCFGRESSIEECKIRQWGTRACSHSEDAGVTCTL

B1: H1H21227N-N297Q: "modified versions of 21227N (H1H21227N-N297Q and H1H21227N-N297D)"; anti-MSR1 antibody "with a N297Q single point mutation" (antibody, V domains shown)
VH: QVQLVQSGAEVKKPGASVKVSCKVSGYTLTELSIHWVRQVPGKGLEWMGGFDPEEGETIFAQEFRDRVTLTEDTSPDTAYMELSSLKSEDAAVYYCTTPRYCNNGICYDYWGQGTLVTVSS
VL: DIQMTQSPSSLSASVGDRVTITCRASQSISNYLNWYQQKPGKAPKLLIYTASSLQSGVPSRFSGSGSGTDFTLTISSLQTEDFATYYCQQSYSNFPITFGQGTRLEIKR
B2: H1H27729P-N297Q: anti-MSR1 antibody "made with an N297Q single point mutation in human Fcγ portion" (antibody, V domains shown)
VH: QVQLVESGGGLVKPGGSLRLSCAASGFIFSDYYMSWIRQAPGKGLEWVSYISSSGTTIYGDSVKGRFTMSRDNAKNSLYLQMNSLRAEDTAVYYCARNYALFDYWGQGTLVTVSS
VL: DIQMTQSPSSLSASVGDRVTITCQASQDISKYLNWYQQKPGKAPKLLIYYTSNLETGVPSRFSGSGSGTDFTFTISSLQPEDIATYYCHQSDYLPFTFGPGTKVDIKR
B3: H1H21231N: "anti-MSR1 antibodies ... (21227N, 21231N, 21234N) were produced with the original human Fcγ portion"; "H1H" = human IgG1 Fc (antibody, V domains shown)
VH: EVQLVESGGGLVQPGGSLRLSCAASGFTFSDHYMDWVRQAPGKGLEWVGRTRNKANSHTTEYTASVTGRFTISRDDSRNSLYLQMNSLKTEDTAVYYCVRAGIIGTLFDYWGQGTLVTVSS
VL: B1 VL with S7F, N31S, Y32F, Y36F, L46F, T50A, T80P, N94S, F95P
modifications: human IgG1 Fc
notes: "anti-MSR1 antibodies ; (21227N, 21231N, 21234N) were produced with the original human Fcγ portion"; "H1H" = human IgG1 Fc
B4: H1H21227N: "anti-MSR1 antibodies ... (21227N, 21231N, 21234N) were produced with the original human Fcγ portion"; "H1H" = human IgG1 Fc (antibody, V domains shown)
VH: B1 VH
VL: B1 VL
modifications: human IgG1 Fc
notes: as for B3
B5: H1H21227N-N297D: "The 21227N antibody was also produced as a third version with a N297D mutation" (antibody, V domains shown)
VH: B1 VH
VL: B1 VL

What was measured:
[1] = target: T1, His9-mMSR1 (mouse MSR1 extracellular domain); assay: OCTET bio-layer interferometry binding kinetics of anti-MSR1 mAbs; details: 25° C., antibody-capture format, analyte His9-mMSR1; for kd: * = no dissociation observed, kd manually fixed at 5.00E−05; for t½: dissociative half-life
Method: Binding affinities and kinetic constants of human anti-MSR1 antibodies for different MSR1 reagents were determined using a real time, label-free bio-layer interferometry assay on an OCTET® HTX biosensor platform (Pall FortéBio Corp., Menlo Park, CA). The experiment was performed at 25° C. in 10 mM HEPES, 150 mM NaCl, 3 mM EDTA, 0.05% v/v Surfactant Tween-20, and 1 mg/mL BSA, pH7.4 (HBS-EBT) buffer with the plate shaking at the speed of 1000 rpm. Binding studies were performed on human MSR1 extracellular domain expressed with a N-terminal nonahistidine tag (His9-hMSR1; R&D Systems, Cat #2708-MS), monkey MSR1 extracellular domain expressed with a N-terminal myc-myc-hexahistidine tag (HMM-mfMSR1; SEQ ID NO: 418), and mouse MSR1 extracellular domain expressed with a N-terminal nonahistidine tag (His9-mMSR1; R&D Systems, Cat #1797-MS). The anti-MSR1 monoclonal antibodies were captured by dipping either anti-human Fc (AHC) or anti-mouse Fc (AMC) Octet biosensors in wells containing 5 μg/mL or 10 μg/mL of anti-MSR1 monoclonal antibody for 45-90 seconds. The AHC captured anti-MSR1 monoclonal antibodies were then dipped in wells containing 50 nM of His9-mMSR1, while the AMC captured anti-MSR1 monoclonal antibodies were dipped in wells containing different concentrations of His9-hMSR1 or HMM-mfMSR1 (100 nM, 25 nM) or 100 nM His9-mMSR1. The binding of different MSR1 reagents to the captured anti-MSR1 monoclonal antibody was measured for 4 minutes and the dissociation of monoclonal antibody bound MSR1 reagent was monitored for 8-10 minutes in HBS-EBT buffer.
The association rate (ka) and dissociation rate (kd) were determined by fitting the real-time binding sensorgrams to a 1:1 binding model with mass transport limitation using Scrubber 2.0c curve-fitting software. Binding dissociation equilibrium constant (KD) and dissociative half-life (t½) were calculated from the kinetic rates as: […]
Binding kinetics parameters for His9-hMSR1, HMM-mfMSR1 or His9-mMSR1 binding to different anti-MSR1 monoclonal antibodies of the invention at 25° C. are shown in Tables 8 and 9.

[2] = target: T2, MSR1-mediated Dil-OxLDL uptake in HEK293.Myc.hMSR1 cells; assay: Ligand uptake assay, Dil-OxLDL; format: cell-based; details: 10 μg/mL Dil-OxLDL; for IC50: read-out: Dil-Oxidized LDL IC50; for Dil-Oxidized LDL % Inhibition: maximum inhibition
Method: A bioassay was generated to assess the ability of the exemplary anti-MSR1 antibodies to regulate the uptake of certain MSR1 ligands.
Generation of MSR1-expressing cell lines for assay. […] The resulting cell line, referred to here as “HEK293.Myc.hMSR1”, was selected and maintained in DMEM containing 10% FIBS, NEAA, penicillin/streptomycin, L-glutamine, and 100 μg/mL hygromycin.
Ligand uptake assay. […] After 30 minutes, either oxidized or acetylated low-density lipoprotein (LDL) labeled with 1,1′dioctadecyl-3,3,3′,3′-tetramethylindocarbocyanine perchlorate (referred to as “Dil-OxLDL” or “Dil-AcLDL,” respectively) was added to the cells at a constant concentration of 10 μg/mL. […] Results were analyzed using nonlinear regression (4-parameter logistics) with the Prism 7 program to obtain EC50 and IC50 values. The percentage of inhibition was calculated with the Relative Fluorescent Unit (RFU) values by using the following equation: […]
In the equation, “RFUBaseline” is the fluorescence value from the cells treated with 10 μg/mL ligand without antibodies, “RFUInhibition” is the minimum fluorescence value with for a particular antibody with 10 μg/mL ligand, and “RFUBackground” is the fluorescence value from cells without any ligand or antibodies.

Molecule | Kd [1] | ka [1] | kd [1] | t½ [1] | IC50 [2] | Dil-Oxidized LDL % Inhibition [2] | Dil-Oxidized LDL IC50 [2] | maximum inhibition of Dil-OxLDL uptake [2]
B1 | 1.89 nM | 374000 M⁻¹ s⁻¹ | 0.000708 s⁻¹ | 16 min | 1.8 nM | 94% | – | –
B2 | – | – | – | – | – | no inhibition | no inhibition | no inhibition
B3 | – | – | – | – | 3.6 nM | 78% | – | –
B4 | 1.97 nM | 415000 M⁻¹ s⁻¹ | 0.000816 s⁻¹ | 14 min | 2 nM | 89% | – | –
B5 | 1.71 nM | 461000 M⁻¹ s⁻¹ | 0.000786 s⁻¹ | 15 min | – | – | – | –
